This assay has as its target growth hormone receptor (GHR) on BAF3/GHR cells. The assay can be described thus: cell-based or functional assay.

The record followed here is patent US20230406901A1.

The substance “growth hormone fusion protein containing a flexible linker, GH(GGGGS)4 (from UniProt P01861 100-325) (Fc fusion)” displayed an EC50(nM), proliferation of BAF3/GHR cells (Alamar-Blue) of 3.19 nM and a Relative potency, proliferation of BAF3/GHR cells (Alamar-Blue) of 37.7%.
